Test results reported in article PMC5343618, “Multimer recognition and secretion by the non-classical secretion pathway in Bacillus subtilis” (Scientific Reports, 2017).

B1: transaldolase (YwjH) (enzyme, B. subtilis 168, UniProt P19669 1-212, looked up)
chain: MLFFVDTANIDEIREANELGILAGVTTNPSLVAKEANVSFHDRLREITDVVKGSVSAEVISLKAEEMIEEGKELAKIAPNITVKIPMTSDGLKAVRALTDLGIKTNVTLIFNANQALLAARAGATYVSPFLGRLDDIGHNGLDLISEVKQIFDIHGLDTQIIAASIRHPQHVTEAALRGAHIGTMPLKVIHALTKHPLTDKGIEQFLADWNK
notes: transaldolase (YwjH), B. subtilis; gene amplified from B. subtilis 168 chromosomal DNA; source: B. subtilis 1A751, overexpressed from a pMAR-derived plasmid; cytoplasmic fraction and culture supernatant, not purified
B2: vegetative catalase (KatA) (enzyme, B. subtilis 168, UniProt P26901 1-483, looked up)
chain: MSSNKLTTSWGAPVGDNQNSMTAGSRGPTLIQDVHLLEKLAHFNRERVPERVVHAKGAGAHGYFEVTNDVTKYTKAAFLSEVGKRTPLFIRFSTVAGELGSADTVRDPRGFAVKFYTEEGNYDIVGNNTPVFFIRDAIKFPDFIHTQKRDPKTHLKNPTAVWDFWSLSPESLHQVTILMSDRGIPATLRHMHGFGSHTFKWTNAEGEGVWIKYHFKTEQGVKNLDVNTAAKIAGENPDYHTEDLFNAIENGDYPAWKLYVQIMPLEDANTYRFDPFDVTKVWSQKDYPLIEVGRMVLDRNPENYFAEVEQATFSPGTLVPGIDVSPDKMLQGRLFAYHDAHRYRVGANHQALPINRARNKVNNYQRDGQMRFDDNGGGSVYYEPNSFGGPKESPEDKQAAYPVQGIADSVSYDHYDHYTQAGDLYRLMSEDERTRLVENIVNAMKPVEKEEIKLRQIEHFYKADPEYGKRVAEGLGLPIKKDS
notes: vegetative catalase (KatA), B. subtilis; gene amplified from B. subtilis 168 chromosomal DNA; source: B. subtilis 1A751, overexpressed from a pMAR-derived plasmid; cytoplasmic fraction and culture supernatant, not purified
B3: molecular chaperone (GroEL) (natural protein, B. subtilis 168, UniProt P28598 1-544, looked up)
chain: MAKEIKFSEEARRAMLRGVDALADAVKVTLGPKGRNVVLEKKFGSPLITNDGVTIAKEIELEDAFENMGAKLVAEVASKTNDVAGDGTTTATVLAQAMIREGLKNVTAGANPVGVRKGMEQAVAVAIENLKEISKPIEGKESIAQVAAISAADEEVGSLIAEAMERVGNDGVITIEESKGFTTELEVVEGMQFDRGYASPYMVTDSDKMEAVLDNPYILITDKKITNIQEILPVLEQVVQQGKPLLLIAEDVEGEALATLVVNKLRGTFNAVAVKAPGFGDRRKAMLEDIAVLTGGEVITEDLGLDLKSTQIAQLGRASKVVVTKENTTIVEGAGETDKISARVTQIRAQVEETTSEFDREKLQERLAKLAGGVAVIKVGAATETELKERKLRIEDALNSTRAAVEEGIVSGGGTALVNVYNKVAAVEAEGDAQTGINIVLRALEEPIRQIAHNAGLEGSVIVERLKNEEIGVGFNAATGEWVNMIEKGIVDPTKVTRSALQNAASVAAMFLTTEAVVADKPEENGGGAGMPDMGGMGGMGGMM
notes: molecular chaperone GroEL, B. subtilis; gene amplified from B. subtilis 168 chromosomal DNA; source: B. subtilis 1A751, overexpressed from a pMAR-derived plasmid; cytoplasmic fraction and culture supernatant, not purified
B4: glyceraldehyde 3-phosphate dehydrogenase (GapA) (enzyme, B. subtilis 168, UniProt P09124 1-335, looked up)
chain: MAVKVGINGFGRIGRNVFRAALNNPEVEVVAVNDLTDANMLAHLLQYDSVHGKLDAEVSVDGNNLVVNGKTIEVSAERDPAKLSWGKQGVEIVVESTGFFTKRADAAKHLEAGAKKVIISAPANEEDITIVMGVNEDKYDAANHDVISNASCTTNCLAPFAKVLNDKFGIKRGMMTTVHSYTNDQQILDLPHKDYRRARAAAENIIPTSTGAAKAVSLVLPELKGKLNGGAMRVPTPNVSLVDLVAELNQEVTAEEVNAALKEAAEGDLKGILGYSEEPLVSGDYNGNKNSSTIDALSTMVMEGSMVKVISWYDNESGYSNRVVDLAAYIAKKGL
notes: glyceraldehyde 3-phosphate dehydrogenase (GapA), B. subtilis; gene amplified from B. subtilis 168 chromosomal DNA; source: B. subtilis 1A751, overexpressed from a pMAR-derived plasmid; cytoplasmic fraction and culture supernatant, not purified
B5: 1-pyrroline-5-carboxylate dehydrogenase (YcgN) (enzyme, B. subtilis 168, UniProt P94391 1-515, looked up)
chain: MTTPYKHEPFTNFQDQNNVEAFKKALATVSEYLGKDYPLVINGERVETEAKIVSINPADKEEVVGRVSKASQEHAEQAIQAAAKAFEEWRYTSPEERAAVLFRAAAKVRRRKHEFSALLVKEAGKPWNEADADTAEAIDFMEYYARQMIELAKGKPVNSREGEKNQYVYTPTGVTVVIPPWNFLFAIMAGTTVAPIVTGNTVVLKPASATPVIAAKFVEVLEESGLPKGVVNFVPGSGAEVGDYLVDHPKTSLITFTGSREVGTRIFERAAKVQPGQQHLKRVIAEMGGKDTVVVDEDADIELAAQSIFTSAFGFAGQKCSAGSRAVVHEKVYDQVLERVIEITESKVTAKPDSADVYMGPVIDQGSYDKIMSYIEIGKQEGRLVSGGTGDDSKGYFIKPTIFADLDPKARLMQEEIFGPVVAFCKVSDFDEALEVANNTEYGLTGAVITNNRKHIERAKQEFHVGNLYFNRNCTGAIVGYHPFGGFKMSGTDSKAGGPDYLALHMQAKTISEMF
notes: 1-pyrroline-5-carboxylate dehydrogenase (YcgN), B. subtilis; gene amplified from B. subtilis 168 chromosomal DNA; source: B. subtilis 1A751, overexpressed from a pMAR-derived plasmid; cytoplasmic fraction and culture supernatant, not purified
B6: fructose 1,6-bisphosphate aldolase (FbaA) (enzyme, B. subtilis 168, UniProt P13243 1-285, looked up)
chain: MPLVSMTEMLNTAKEKGYAVGQFNLNNLEFTQAILQAAEEEKSPVILGVSEGAGRYMGGFKTVVAMVKALMEEYKVTVPVAIHLDHGSSFESCAKAIHAGFTSVMIDASHHPFEENVATTAKVVELAHFHGVSVEAELGTVGGQEDDVIAEGVIYADPKECQELVERTGIDCLAPALGSVHGPYKGEPNLGFKEMEEIGKSTGLPLVLHGGTGIPTADIKKSISLGTAKINVNTENQISSAKAVRETLAAKPDEYDPRKYLGPAREAIKETVIGKMREFGSSNQA
notes: fructose 1,6-bisphosphate aldolase (FbaA), B. subtilis; gene amplified from B. subtilis 168 chromosomal DNA; source: B. subtilis 1A751, overexpressed from a pMAR-derived plasmid; cytoplasmic fraction and culture supernatant, not purified
B7: superoxide dismutase (SodA) (enzyme, B. subtilis 168, UniProt P54375 1-202, looked up)
chain: MAYELPELPYAYDALEPHIDKETMTIHHTKHHNTYVTNLNKAVEGNTALANKSVEELVADLDSVPENIRTAVRNNGGGHANHKLFWTLLSPNGGGEPTGALAEEINSVFGSFDKFKEQFAAAAAGRFGSGWAWLVVNNGKLEITSTPNQDSPLSEGKTPILGLDVWEHAYYLNYQNRRPDYISAFWNVVNWDEVARLYSEAK
notes: superoxide dismutase (SodA), B. subtilis; gene amplified from B. subtilis 168 chromosomal DNA; source: B. subtilis 1A751, overexpressed from a pMAR-derived plasmid; cytoplasmic fraction and culture supernatant, not purified
B8: general stress protein (YceD) (natural protein, B. subtilis 168, UniProt P80875 1-193, looked up)
chain: MTISLAKGQKVDLTKTNPGLSKVVVGLGWDTNKYDGGHDFDLDSSVFLLDAAGKCASPNDFIFYNQLEGGNGSVVHSGDNLTGAGEGDDENVKVNLSAVPANIDKISFVITIHDAEARSQNFGQVSNAFVRIVNEETNEELIRYDLAEDFSIETAIIAGELYRHNGEWKFSAIGSGYQGGLARIATDYGLQVG
notes: general stress protein YceD, B. subtilis; gene amplified from B. subtilis 168 chromosomal DNA; Seen as monomer and as dimer; source: B. subtilis 1A751, overexpressed from a pMAR-derived plasmid; cytoplasmic fraction and culture supernatant, not purified
B9: arginase (RocF) (enzyme, B. subtilis 168, UniProt P39138 1-296, looked up)
chain: MDKTISVIGMPMDLGQARRGVDMGPSAIRYAHLIERLSDMGYTVEDLGDIPINREKIKNDEELKNLNSVLAGNEKLAQKVNKVIEEKKFPLVLGGDHSIAIGTLAGTAKHYDNLGVIWYDAHGDLNTLETSPSGNIHGMPLAVSLGIGHESLVNLEGYAPKIKPENVVIIGARSLDEGERKYIKESGMKVYTMHEIDRLGMTKVIEETLDYLSACDGVHLSLDLDGLDPNDAPGVGTPVVGGISYRESHLAMEMLYDAGIITSAEFVEVNPILDHKNKTGKTAVELVESLLGKKLL
notes: arginase (RocF), B. subtilis; gene amplified from B. subtilis 168 chromosomal DNA; source: B. subtilis 1A751, overexpressed from a pMAR-derived plasmid; cytoplasmic fraction and culture supernatant, not purified
B10: pyruvate dehydrogenase PdhD (enzyme, B. subtilis 168, UniProt P21880 1-470, looked up)
chain: MVVGDFPIETDTLVIGAGPGGYVAAIRAAQLGQKVTVVEKATLGGVCLNVGCIPSKALINAGHRYENAKHSDDMGITAENVTVDFTKVQEWKASVVNKLTGGVAGLLKGNKVDVVKGEAYFVDSNSVRVMDENSAQTYTFKNAIIATGSRPIELPNFKYSERVLNSTGALALKEIPKKLVVIGGGYIGTELGTAYANFGTELVILEGGDEILPGFEKQMSSLVTRRLKKKGNVEIHTNAMAKGVEERPDGVTVTFEVKGEEKTVDADYVLITVGRRPNTDELGLEQVGIEMTDRGIVKTDKQCRTNVPNIYAIGDIIEGPPLAHKASYEGKIAAEAIAGEPAEIDYLGIPAVVFSEPELASVGYTEAQAKEEGLDIVAAKFPFAANGRALSLNETDGFMKLITRKEDGLVIGAQIAGASASDMISELSLAIEGGMTAEDIAMTIHAHPTLGEITMEAAEVAIGSPIHIVK
notes: pyruvate dehydrogenase PdhD, B. subtilis; gene amplified from B. subtilis 168 chromosomal DNA; source: B. subtilis 1A751, overexpressed from a pMAR-derived plasmid; cytoplasmic fraction and culture supernatant, not purified

Target: the molecule itself
Assay: native gel or EMSA; blue native PAGE (BN-PAGE) of the soluble cytoplasmic fraction and the culture supernatant of B. subtilis after 24 h of cultivation; non-reducing sample buffer, Coomassie blue; mass estimated within ±15%

Protein	stoichiometry N
B1	7
B2	4
B3	2
B4	3
B5	4
B6	5
B7	2
B8	2
B9	5
B10	2
